Results as given in patent US20230057071A1 (NOVARTIS AG, priority 2019, published 2023).

Biological target: T1, TIM-3/Galectin-9 interaction (Homo sapiens, UniProt Q8TDQ0)
T1 construct: purchased R&D Systems
Test: Plate-based (MesoScale) competition assay of the TIM-3/Galectin-9 interaction
Assay type: binding
Settings: serial dilutions of antibody; labeled Galectin-9 100 nM
Method: FIG. 1 is a graph depicting the impact of MBG453 on the interaction between TIM3 and galectin-9. Competition was assessed as a measure of the ability of the antibody to block Gal9-SULFOTag signal to TIM-3 receptor, which is shown on the Y-axis. Concentration of the antibody is shown on the X-axis.
TIM-3 fusion protein (R&D Systems) was coated on a standard MesoScale 96 well plate (Meso Scale Discovery) at 2 μg/ml in PBS (Phosphate Buffered Saline) and incubated for six hours at room temperature. The plate was washed three times with PBST (PBS buffer containing 0.05% Tween-20) and blocked with PBS containing 5% Probumin (Millipore) overnight at 4° C. After incubation, the plate was washed three times with PBST and unlabeled antibody (F38-2E2 (BioLegend); MBG453; MBG453 F(ab′)2; MBG453 F(ab); or control recombinant human Galectin-9 protein) diluted in Assay Diluent (2% Probumin, 0.1% Tween-20, 0.1% Triton X-100 (Sigma) with 10% StabilGuard (SurModics)), was added in serial dilutions to the plate and incubated for one hour on an orbital shaker at room temperature. […] The plate was again washed three times with PBST, and Read Buffer T (1×) was added to the plate. The plate was read on MA600 Imager, and competition was assessed as a measure of the ability of the antibody to block Gal9-SULFOTag signal to TIM-3 receptor.

B1: control Galectin-9 protein: unlabeled control recombinant human Galectin-9 protein (protein)
chain: AFSGSQAPYLSPAVPFSGTIQGGLQDGLQITVNGTVLSSSGTRFAVNFQTGFSGNDIAFHFNPRFEDGGYVVCNTRQNGSWGPEERKTHMPFQKGMPFDLCFLVQSSDFKVMVNGILFVQYFHRVPFHRVDTISVNGSVQLSYISFQPPGVWPANPAPITQTVIHTVQSAPGQMFSTPAIPPMMYPHPAYPMPFITTILGGLYPSKSILLSGTVLPSAQRFHINLCSGNHIAFHLNPRFDENAVVRNTQIDNSWGSEERSLPRKMPFVRGQSFSVWILCEAHCLKVAVDGQHLFEYYHRLRNLPTINRLEVGGDIQLTHVQT
**Q.** With B1 as the molecule, how does the “block of the interaction between TIM-3 and Galectin-9 (Gal9-SULFOTag signal to TIM-3)” value read?
**A.** did not
